In US20040014207A1:

Biological target: murine B7-DC (murine) (UniProt Q9WUL5)
Assay: flow cytometry competition; murine bone marrow derived dendritic cells preincubated with PD-1.Ig, then stained with sHIgM12

Sequence of murine B7-DC (murine) (Q9WUL5 20-247): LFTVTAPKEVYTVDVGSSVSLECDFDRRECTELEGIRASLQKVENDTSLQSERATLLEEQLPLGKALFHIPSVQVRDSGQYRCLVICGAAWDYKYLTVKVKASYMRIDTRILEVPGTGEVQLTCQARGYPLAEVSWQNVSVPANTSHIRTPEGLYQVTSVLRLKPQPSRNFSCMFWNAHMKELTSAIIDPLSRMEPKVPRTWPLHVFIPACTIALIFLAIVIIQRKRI
Sequence of PD-1.Ig fusion protein (Fc fusion) (Q02242 25-169): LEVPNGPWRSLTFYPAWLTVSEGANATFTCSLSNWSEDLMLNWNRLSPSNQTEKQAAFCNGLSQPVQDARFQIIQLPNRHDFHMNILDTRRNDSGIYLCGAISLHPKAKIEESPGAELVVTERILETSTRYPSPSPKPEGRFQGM

With PD-1.Ig fusion protein (Fc fusion) as the substance, how does the sHIgM12 staining remaining, percent of the level in the absence of PD-1 read?
Its sHIgM12 staining remaining, percent of the level in the absence of PD-1 is 50%.
